# Measured values from PMC7810871.
# Biological target: EsxE-EsxF heterodimer (Mycobacterium tuberculosis) (UniProt P9WNH8)
# Experiment: negative-stain electron microscopy
substance,measurement,value
EsxE-EsxF heterodimer (from UniProt P9WNH8 1-90; P9WNH6 1-103) (complex),stoichiometry N,5
